{"source": "patent US20220267441A1", "about": "(VOR BIOPHARMA, published 2022)", "binders": {"B1": {"name": "Antibody C (AbC) (antibody, IgG1, V domains shown)", "VH": "EVQLVESGGGLVQPGGSLRLSCAASGFTFNNYWMTWVRQAPGKGLEWVSSISSSGGSIYYPDSVKDRFTISRDNAKNSLYLQMNSLRAEDMAVYYCARLYYYDGGGDAWGQGTLVTVSS", "VL": "GIQMTQSPSSLSASVGDRVTITCKASQDINKYLDWYQQKPGKAPKLLIYNTNNLHTGIPSRFSGSGSGTDYTLTISSLQPEDFATYYCLQHISRWTFGGGTKVEIK", "notes": "also called humanized clone AbC"}}, "key": {"[1]": {"molecular_target": "T1, purified human CD45 ectodomain (human CD45RABC antigen) (human, UniProt P08575 26-577)", "T1 construct": "also called hCD45", "T1 sequence": "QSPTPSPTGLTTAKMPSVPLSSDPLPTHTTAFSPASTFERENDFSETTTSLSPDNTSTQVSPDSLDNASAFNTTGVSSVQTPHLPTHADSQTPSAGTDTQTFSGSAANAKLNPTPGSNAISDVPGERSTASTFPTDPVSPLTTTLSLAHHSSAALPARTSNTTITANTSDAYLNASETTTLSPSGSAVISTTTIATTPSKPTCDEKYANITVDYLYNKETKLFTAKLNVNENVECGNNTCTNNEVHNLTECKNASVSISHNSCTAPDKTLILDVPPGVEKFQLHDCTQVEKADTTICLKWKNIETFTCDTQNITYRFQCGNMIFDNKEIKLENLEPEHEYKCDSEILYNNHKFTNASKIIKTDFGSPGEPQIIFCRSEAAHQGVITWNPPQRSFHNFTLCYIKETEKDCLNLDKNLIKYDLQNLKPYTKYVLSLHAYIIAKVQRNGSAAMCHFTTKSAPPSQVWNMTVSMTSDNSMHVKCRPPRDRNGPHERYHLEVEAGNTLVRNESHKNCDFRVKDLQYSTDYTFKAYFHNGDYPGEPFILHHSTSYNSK", "test": "BLI (Octet Red96), antibody on anti-human Fc sensor, 100 nM human CD45 ectodomain, 1:1 fit"}, "[2]": {"molecular_target": "T2, cynomolgus CD45 on live cells (primary cynomolgus PBMCs) (cynomolgus monkey)", "T2 construct": "Endogenous CD45 on PBMCs; also called cyno CD45; Cyno PBMC", "T2 chain": "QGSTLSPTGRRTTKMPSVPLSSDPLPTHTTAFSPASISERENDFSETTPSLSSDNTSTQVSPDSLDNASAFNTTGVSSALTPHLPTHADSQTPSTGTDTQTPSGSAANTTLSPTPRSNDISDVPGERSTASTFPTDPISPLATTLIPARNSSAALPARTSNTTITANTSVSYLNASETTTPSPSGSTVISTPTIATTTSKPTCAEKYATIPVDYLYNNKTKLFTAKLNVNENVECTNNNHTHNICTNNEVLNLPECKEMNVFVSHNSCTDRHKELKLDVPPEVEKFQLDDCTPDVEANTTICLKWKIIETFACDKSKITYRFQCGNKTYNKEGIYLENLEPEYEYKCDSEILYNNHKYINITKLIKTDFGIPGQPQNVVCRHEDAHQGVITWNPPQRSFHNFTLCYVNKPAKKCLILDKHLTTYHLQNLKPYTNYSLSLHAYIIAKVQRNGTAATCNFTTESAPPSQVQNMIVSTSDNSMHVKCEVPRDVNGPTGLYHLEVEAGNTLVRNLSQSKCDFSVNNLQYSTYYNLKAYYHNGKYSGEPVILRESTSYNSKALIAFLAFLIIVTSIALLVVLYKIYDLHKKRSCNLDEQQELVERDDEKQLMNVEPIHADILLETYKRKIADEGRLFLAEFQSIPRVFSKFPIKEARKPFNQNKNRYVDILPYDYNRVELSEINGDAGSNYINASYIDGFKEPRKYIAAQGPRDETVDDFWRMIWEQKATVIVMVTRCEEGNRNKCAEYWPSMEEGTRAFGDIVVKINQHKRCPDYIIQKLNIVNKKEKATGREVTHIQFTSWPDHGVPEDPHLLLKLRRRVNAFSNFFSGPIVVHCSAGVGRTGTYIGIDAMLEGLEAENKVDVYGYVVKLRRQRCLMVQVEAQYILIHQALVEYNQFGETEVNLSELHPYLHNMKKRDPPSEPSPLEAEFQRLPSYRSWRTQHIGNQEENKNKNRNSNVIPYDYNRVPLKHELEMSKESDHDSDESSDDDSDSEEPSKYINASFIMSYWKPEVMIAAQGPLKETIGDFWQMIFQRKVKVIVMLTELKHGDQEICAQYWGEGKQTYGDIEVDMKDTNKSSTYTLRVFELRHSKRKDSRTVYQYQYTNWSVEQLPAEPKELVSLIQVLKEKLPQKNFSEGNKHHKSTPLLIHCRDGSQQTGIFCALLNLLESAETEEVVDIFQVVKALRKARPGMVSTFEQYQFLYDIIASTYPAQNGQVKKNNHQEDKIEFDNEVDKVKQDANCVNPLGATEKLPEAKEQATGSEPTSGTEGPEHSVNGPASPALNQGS", "test": "flow cytometry on PBMCs; cyno EC50 against human EC50"}, "[3]": {"molecular_target": "T3, human CD45 on live cells (REH-1 cells, primary human PBMCs) (human, UniProt P08575 26-1306)", "T3 construct": "Endogenous CD45", "T3 sequence": "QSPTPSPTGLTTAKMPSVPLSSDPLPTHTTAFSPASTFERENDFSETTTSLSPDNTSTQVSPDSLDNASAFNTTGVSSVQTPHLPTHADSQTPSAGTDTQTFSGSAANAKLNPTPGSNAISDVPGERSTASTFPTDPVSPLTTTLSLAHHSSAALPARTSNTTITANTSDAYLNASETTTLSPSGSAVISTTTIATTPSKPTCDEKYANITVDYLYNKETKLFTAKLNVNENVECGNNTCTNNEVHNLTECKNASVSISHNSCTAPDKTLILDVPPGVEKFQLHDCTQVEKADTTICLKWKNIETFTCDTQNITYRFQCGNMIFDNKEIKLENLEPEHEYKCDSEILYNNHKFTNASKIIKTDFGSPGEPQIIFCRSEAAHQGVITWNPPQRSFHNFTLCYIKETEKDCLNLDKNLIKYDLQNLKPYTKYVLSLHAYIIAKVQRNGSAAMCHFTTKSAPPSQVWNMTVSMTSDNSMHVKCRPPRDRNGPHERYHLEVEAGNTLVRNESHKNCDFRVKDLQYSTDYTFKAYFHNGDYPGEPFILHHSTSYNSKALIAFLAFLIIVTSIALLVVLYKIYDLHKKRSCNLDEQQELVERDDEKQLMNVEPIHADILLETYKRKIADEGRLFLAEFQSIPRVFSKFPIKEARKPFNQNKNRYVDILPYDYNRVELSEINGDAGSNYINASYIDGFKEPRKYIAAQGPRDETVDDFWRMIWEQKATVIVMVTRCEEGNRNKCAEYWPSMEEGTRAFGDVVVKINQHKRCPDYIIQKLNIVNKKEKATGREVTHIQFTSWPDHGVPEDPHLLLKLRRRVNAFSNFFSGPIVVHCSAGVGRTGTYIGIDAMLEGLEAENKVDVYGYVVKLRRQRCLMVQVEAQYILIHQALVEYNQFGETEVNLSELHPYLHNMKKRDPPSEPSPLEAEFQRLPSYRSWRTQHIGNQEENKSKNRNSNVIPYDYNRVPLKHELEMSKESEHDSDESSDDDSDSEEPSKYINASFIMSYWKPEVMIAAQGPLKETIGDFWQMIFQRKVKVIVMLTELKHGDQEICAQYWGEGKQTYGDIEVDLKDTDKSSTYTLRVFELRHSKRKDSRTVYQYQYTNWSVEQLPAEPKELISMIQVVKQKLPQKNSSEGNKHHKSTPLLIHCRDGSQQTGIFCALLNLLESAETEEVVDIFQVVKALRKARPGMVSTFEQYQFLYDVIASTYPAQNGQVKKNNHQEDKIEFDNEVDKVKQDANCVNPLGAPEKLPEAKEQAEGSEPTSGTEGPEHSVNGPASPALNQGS", "test": "flow cytometry on human PBMCs, overnight 37 C, AF488 anti-human IgG"}, "[4]": {"molecular_target": "T2, cynomolgus CD45 on live cells (primary …)", "test": "flow cytometry on cynomolgus PBMCs, overnight 37 C, AF488 anti-human IgG"}, "[5]": {"molecular_target": "T1, purified human CD45 ectodomain (human …)", "test": "BLI (Octet Red96), Table 11; the sentence does not name the species of CD45"}, "[6]": {"molecular_target": "T2, cynomolgus CD45 on live cells (primary …)", "test": "flow cytometry on cynomolgus PBMCs, overnight 37 C, AF488 anti-human IgG"}, "[7]": {"molecular_target": "T3, human CD45 on live cells (REH-1 cells, …)", "test": "flow cytometry on human PBMCs, overnight 37 C, AF488 anti-human IgG", "remark": "listed apart in the source"}, "[8]": {"molecular_target": "T2, cynomolgus CD45 on live cells (primary …)", "test": "flow cytometry on PBMCs; cyno EC50 against human EC50"}}, "note": "Like-named read-outs stand apart in the source and are kept apart here."}
{"binder": "B1", "values": [{"measurement": "Kd", "setting": "[1]", "result": 2.93, "unit": "nM"}, {"measurement": "koff", "setting": "[1]", "result": 0.000149, "unit": "s⁻¹"}, {"measurement": "kon", "setting": "[1]", "result": 50800, "unit": "M⁻¹ s⁻¹"}, {"measurement": "Fold Cyno v/s Human (EC50)", "setting": "[2]", "result": 2.1, "unit": "fold"}, {"measurement": "EC50", "setting": "[3]", "result": 0.51, "unit": "nM"}, {"measurement": "EC50", "setting": "[4]", "result": 1.34, "unit": "nM"}, {"measurement": "fold improved affinity over the parent clone C", "setting": "[5]", "result": "> 4", "unit": "fold"}, {"measurement": "EC50", "setting": "[6]", "result": 0.88, "unit": "nM"}, {"measurement": "EC50", "setting": "[7]", "result": 0.64, "unit": "nM"}, {"measurement": "Fold Cyno vs Human (EC50)", "setting": "[8]", "result": 1.7, "unit": "fold"}]}
